Results reported in PMC5547543.
Where two headings read alike, the source gives them in different places.

Legend:
Hck (2PA-YEEI) [1] = molecular target: Hck (2PA-YEEI) (UniProt P08631); experiment: SPR; Hck (2PA-YEEI) amine-coupled (EDC/NHS) to a CMD 500 carboxymethyl dextran chip, 6053 RU, BIAcore 2000; Csk, Chk, Chk mutants and chimera as analytes in HBS (10 mM HEPES pH 7.4, 150 mM NaCl, 3.4 mM EDTA, 0.005% Tween 20); global fit to a 1 to 1 model with mass transfer; molecular binding activity from the maximum response
Hck (2PA-YEEI) [2] = molecular target: Hck (2PA-YEEI) (UniProt P08631); experiment: as above; remark: listed apart in the source

Kd (Hck (2PA-YEEI) [1])	koff (Hck (2PA-YEEI) [1])	kon (Hck (2PA-YEEI) [1])	molecular binding activity (MBA) at 2.7 μM Csk (Hck (2PA-YEEI) [1]; scale: mol of analyte bound per mol of immobilized Hck)	Kd (Hck (2PA-YEEI) [2])	fold reduction of kon against wild type Chk (Hck (2PA-YEEI) [1])	Substance
13.1 µM	0.0077 s⁻¹	588 M⁻¹ s⁻¹	0.01	13 µM		C-terminal Src kinase (Csk), recombinant (from UniProt P41240 1-450) (enzyme)
				0.295 µM	3 fold	Chk (K387A) (from UniProt P42679-2 1-508) (enzyme)
				0.227 µM	3 fold	Chk (R382A) (from UniProt P42679-2 1-508) (enzyme)
	0.00031 s⁻¹	243 M⁻¹ s⁻¹				Csk-Chk chimera (from UniProt P41240 1-181; P42679 235-482) (enzyme)
